Experimental data from US20210332142A1 (Genentech, published 2021).
Numbering of substitutions follows the chain as printed. Read-outs that look alike come from different tables or passages of the source. One block for each binder: values may come before it.

Assays:
[1] = target: T1, recombinant human Tie2 extracellular domain (human, UniProt Q02763 23-748); assay: SPR, IgG captured, 37C
T1 construct: whole entry named; also called Recombinant human Tie2 ECD; hu Tie2
Protocol: (§1) A human antibody capture chip was prepared using a Series S CM5 chip (GE Life Sciences), a human antibody capture kit (GE Life Sciences) and an amine coupling kit (GE Life Sciences). Antibodies diluted to 5 μg/ml in running buffer (10 mM HEPES, 150 mM NaCl, 0.05% Tween 20, 1 mM EDTA, pH 7.4) were non-covalently captured using a contact time of 20 seconds and a flow rate of 10 μl/minute. Binding to 300 nM and 1500 nM recombinant Tie2 was analyzed at 37° C. using a Single Cycle Kinetics method with a contact time of 60 seconds, a dissociation time of 120 seconds and a flow rate of 50 μl/min. Between cycles, the surface was regenerated by a 30 second injection of 3M MgCl₂ at a flow rate of 30 μl/min. Values for antibody capture levels and analyte binding levels were obtained from the Report Point Table (Biacore Evaluation Software v3.0, GE Life Sciences). […] Table 16: Experiment A; Table 17: Experiment B.
Target sequence in this assay (Q02763 23-748 limits assumed): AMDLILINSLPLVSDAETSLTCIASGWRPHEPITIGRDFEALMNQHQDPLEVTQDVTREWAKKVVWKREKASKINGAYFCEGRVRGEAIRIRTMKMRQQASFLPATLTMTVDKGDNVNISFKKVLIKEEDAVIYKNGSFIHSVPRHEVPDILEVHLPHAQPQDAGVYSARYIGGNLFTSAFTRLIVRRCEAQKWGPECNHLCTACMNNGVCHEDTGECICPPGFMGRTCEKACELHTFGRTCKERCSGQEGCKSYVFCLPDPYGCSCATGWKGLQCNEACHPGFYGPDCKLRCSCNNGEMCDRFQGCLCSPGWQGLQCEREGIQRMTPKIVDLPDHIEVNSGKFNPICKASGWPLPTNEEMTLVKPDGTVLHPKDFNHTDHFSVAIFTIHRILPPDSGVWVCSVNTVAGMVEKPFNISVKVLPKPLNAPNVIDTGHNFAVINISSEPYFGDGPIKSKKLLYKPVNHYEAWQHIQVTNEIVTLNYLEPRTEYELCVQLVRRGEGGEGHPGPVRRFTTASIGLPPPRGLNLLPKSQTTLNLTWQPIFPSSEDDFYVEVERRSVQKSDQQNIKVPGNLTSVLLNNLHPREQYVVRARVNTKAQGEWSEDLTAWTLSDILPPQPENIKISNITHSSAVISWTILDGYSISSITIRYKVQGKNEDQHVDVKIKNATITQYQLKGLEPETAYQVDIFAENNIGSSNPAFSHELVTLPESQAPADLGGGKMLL

[2] = target: T2, recombinant cyno Tie2 extracellular domain (cynomolgus monkey, UniProt Q02763 23-748 (human entry)); assay: SPR, IgG captured, 37C
T2 construct: also called Recombinant cyno Tie2 ECD; cy Tie2
T2 chain: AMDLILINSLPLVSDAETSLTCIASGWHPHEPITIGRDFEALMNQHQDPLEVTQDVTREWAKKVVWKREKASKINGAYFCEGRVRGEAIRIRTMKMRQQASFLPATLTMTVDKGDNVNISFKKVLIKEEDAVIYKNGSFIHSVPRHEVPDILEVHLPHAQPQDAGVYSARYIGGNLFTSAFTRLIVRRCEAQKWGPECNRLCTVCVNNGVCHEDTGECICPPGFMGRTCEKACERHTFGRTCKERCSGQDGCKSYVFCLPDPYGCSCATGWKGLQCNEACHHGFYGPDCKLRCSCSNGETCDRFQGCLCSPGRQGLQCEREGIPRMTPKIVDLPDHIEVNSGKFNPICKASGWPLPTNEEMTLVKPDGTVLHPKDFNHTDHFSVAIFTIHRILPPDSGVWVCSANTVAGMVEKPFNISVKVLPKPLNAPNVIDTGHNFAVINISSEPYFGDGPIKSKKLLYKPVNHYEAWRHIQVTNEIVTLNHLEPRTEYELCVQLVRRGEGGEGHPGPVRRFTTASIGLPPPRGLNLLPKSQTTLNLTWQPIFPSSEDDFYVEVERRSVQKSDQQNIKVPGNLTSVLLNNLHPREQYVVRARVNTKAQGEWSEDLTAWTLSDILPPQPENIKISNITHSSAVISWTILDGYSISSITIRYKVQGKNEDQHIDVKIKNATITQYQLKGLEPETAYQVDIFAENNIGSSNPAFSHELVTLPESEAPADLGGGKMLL
Protocol: as §1

[3] = target: T1, recombinant human Tie2 extracellular …; assay: SPR, IgG captured, 37C; remark: listed apart in the source
Protocol: as §1
Target sequence in this assay (Q02763 23-748 limits assumed): as the sequence (Q02763 23-748 limits assumed) above

[4] = target: T2, recombinant cyno Tie2 extracellular …; assay: SPR, IgG captured, 37C
Protocol: as §1

[5] = target: T1, recombinant human Tie2 extracellular …; assay: SPR, IgG captured, steady state analysis
Protocol: (§2) Binding to recombinant human and cyno Tie2 was analyzed using a high performance multi-cycle kinetics format with a contact time of 60 seconds, a dissociation time of 60 seconds, a flow rate of 100 μl/minute and Tie2 concentrations of 5 μM, 2.5 μM, 1.25 μM, 625 nM, 313 nM and 156 nM. Tie2 concentrations of 5 μM, 2.5 μM and 1.25 μM were injected twice. Results were analyzed using Biacore T200 Evaluation Software v3.0 (GE Life Sciences). Results from all three surface densities were analyzed together using the 1:1 Binding model with multiple Rmax and the RI parameter set to zero.

[6] = target: T2, recombinant cyno Tie2 extracellular …; assay: SPR, IgG captured, steady state analysis
Protocol: as §2

[7] = target: T1, recombinant human Tie2 extracellular …; assay: SPR multi-cycle kinetics, IgG captured, kinetic analysis
Protocol: Binding to 300 nM and 1500 nM recombinant Tie2 was analyzed at 37° C. using a Single Cycle Kinetics method with a contact time of 60 seconds, a dissociation time of 120 seconds and a flow rate of 50 μl/min. Between cycles, the surface was regenerated by a 30 second injection of 3M MgCl₂ at a flow rate of 30 μl/min. Values for antibody capture levels and analyte binding levels were obtained from the Report Point Table (Biacore Evaluation Software v3.0, GE Life Sciences). […] Table 16: Experiment A; Table 17: Experiment B.
as §2

[8] = target: T2, recombinant cyno Tie2 extracellular …; assay: as above
Protocol: as §2

[9] = target: T2, recombinant cyno Tie2 extracellular …; assay: SPR multi-cycle kinetics, IgG captured, kinetic analysis; cyno Tie2; kinetic analysis
Protocol: as §2

[10] = target: T1, recombinant human Tie2 extracellular …; assay: SPR multi-cycle kinetics, IgG captured, kinetic analysis; human Tie2; kinetic analysis
Protocol: as §2

omalizumab = target: T3, omalizumab; assay: phage ELISA
T3 construct: Used as irrelevant coated protein; also called irrelevant Fc-containing protein; not shown: the constant regions

[11] = target: T4, mouse Tie2 full extracellular domain fused to mIgG2a Fc (mouse, UniProt Q02858 23-746); assay: phage ELISA
T4 construct: extracellular domain; also called mFull.Fc; not shown: Fc region of mIgG2a, fused at the C-terminus
Protocol: Clones from the fourth round were screened for Tie2 binding and specificity by ELISA. Screening ELISAs were carried out by coating the wells of a 96-well microtiter plate with Tie2 protein or irrelevant protein at 65 ul per well (1 ug/ml in coating buffer) at 4° C. overnight. In a 96-tube plate, colonies from the fourth round were grown overnight at 37° C. in 400 ul 2YT media with 50 ug/ml carbenicillin and helper phage K07. The plate was spun down at 3000 rpm for 10 min. 30 ul of the culture supernatant was added with 60 ul of ELISA buffer (PBS with 0.5% BSA and 0.05% Tween20) to the Tie2-coated plate and incubated at room temperature for 1 hr. Plates were washed with PBS—0.05% Tween20 and 100 ul/well of horseradish peroxidase (HRP)-conjugated anti-M13 antibody (1/5000 dilution in PBS plus 0.5% BSA and 0.05% Tween20) at room temperature for 30 min (Sidhu et al., supra). The wells were washed with PBS—0.05% Tween20 prior to 100 ul/well of a 1:1 ratio of 3,3′,5,5′-tetramethylbenzidine (TMB) peroxidase substrate and Peroxidase Solution B (H₂O₂) ((Kirkegaard-Perry Laboratories (Gaithersburg, Md.)) being added per well and incubated for 5 min at room temperature. The reaction was stopped by adding 100 ul 1M phosphoric Acid (H₃PO₄) per well and the OD of wells was determined using a standard ELISA plate reader at 450 nm.

human Tie2ECD.flag = target: T5, human Tie2ECD.flag (human, UniProt Q02763 23-748); assay: Biacore, hIgG captured, 25C
T5 construct: also called hTie2.flag; not shown: C-terminal Flag tag
T5 sequence (Q02763 23-748 limits assumed): as the sequence (Q02763 23-748 limits assumed) above
Protocol: (§3) Monovalent affinities of selected anti-Tie2 hIgGs were determined using a Biacore T200 instrument (GE Life Sciences). Anti-humanFc was covalently immobilized on a Series S CM5 Biacore sensor chip to enable non-covalent capture of anti-Tie2 antibodies and binding of human or rat Tie2ECD.flag was monitored in real time at 25° C. using a multi-cycle kinetics experiment format. Between cycles, the surface was regenerated with 3 M MgCl₂. Monovalent affinities were determined by kinetic analysis, using Biacore Evaluation Software (GE Life Sciences) to fit a 1:1 binding model to the data.

rat Tie2ECD.flag = target: T6, rat Tie2ECD.flag (rat, UniProt A0ABK0L6J5 19-740); assay: Biacore, hIgG captured, 25C
T6 construct: extracellular domain; also called rTie2.flag; not shown: C-terminal Flag tag
Protocol: as §3

- Normalized Binding Signal, 300 nM [1]: 0.15
- Normalized Binding Signal, 1500 nM [1]: 0.46
- Normalized Binding Signal, 300 nM [2]: 0.13
- Normalized Binding Signal, 1500 nM [2]: 0.44
- Normalized Binding Signal, 300 nM [3]: 0.15
- Normalized Binding Signal, 1500 nM [3]: 0.47
- Normalized Binding Signal, 300 nM [4]: 0.13
- Normalized Binding Signal, 1500 nM [4]: 0.45
B1: Tie2.1.M100cY (antibody, IgG1, name in Kabat numbering, V domains shown)
VH: EVQLVESGGGLVQPGGSLRLSCAASGFTFSNTDISWVRQAPGKGLEWVGRISPSDGNTYYADSVKGRFTISADTSKNTAYLQMNSLRAEDTAVYYCARRTRWASWAYDYWGQGTLVTVSS
VL: DIQMTQSPSSLSASVGDRVTITCRASQDVSTAVAWYQQKPGKAPKLLIYSASFLYSGVPSRFSGSGSGTDFTLTISSLQPEDFATYYCQQSYTTPPTFGQGTKVEIKR
notes: hIgG1

- Normalized Binding Signal, 300 nM [1]: 0.14
- Normalized Binding Signal, 1500 nM [1]: 0.44
- Normalized Binding Signal, 300 nM [2]: 0.12
- Normalized Binding Signal, 1500 nM [2]: 0.42
- Normalized Binding Signal, 300 nM [3]: 0.16
- Normalized Binding Signal, 1500 nM [3]: 0.48
- Normalized Binding Signal, 300 nM [4]: 0.14
- Normalized Binding Signal, 1500 nM [4]: 0.46
- Kd [5]: 2000 nM
- Kd [6]: 2000 nM
- koff [7]: 0.39 s⁻¹
- kon [7]: 220000 M⁻¹ s⁻¹
- koff [8]: 0.37 s⁻¹
- kon [8]: 190000 M⁻¹ s⁻¹
- Kd [9]: 2000 nM
- Kd [10]: 2000 nM
B2: Tie2.1.M100cF (antibody, IgG1, V domains shown)
VH: B1 VH with Y107F
VL: DIQMTQSPSSLSASVGDRVTITCRASQDVSTAVAWYQQKPGKAPKLLIYSASFLYSGVPSRFSGSGSGTDFTLTISSLQPEDFATYYCQQSYTTPPTFGQGTKVEIK
notes: hIgG1 in the SPR and binning assays

- binding result (omalizumab): no binding
- binding result [11]: binds
- Kd (human Tie2ECD.flag): 376 nM
- Kd (rat Tie2ECD.flag): 2200 nM
B3: Tie2.38 (antibody, IgG1, V domains shown)
VH: EVQLVESGGGLVQPGGSLRLSCAASGFTFSNSAIHWVRQAPGKGLEWVASITPYNGYTYYADSVKGRFTISADTSKNTAYLQMNSLRAEDTAVYYCARRQSYSYVMDYWGQGTLVTVSS
VL: B1 VL
notes: hIgG1 in later assays; also called Ab38

- binding result (omalizumab): no binding
- binding result [11]: binds
B4: Tie2.33 (antibody, IgG1, V domains shown)
VH: EVQLVESGGGLVQPGGSLRLSCAASGFTFSGSWISWVRQAPGKGLEWVARINPYDGNTYYADSVKGRFTISADTSKNTAYLQMNSLRAEDTAVYYCARNNRFPTWFDYWGQGTLVTVSS
VL: B1 VL
notes: hIgG1 in later assays; also called Ab33; T2.33

- Kd (human Tie2ECD.flag): 155 nM
- Kd (rat Tie2ECD.flag): 57 nM
B5: Tie2.34 (antibody, IgG1, V domains shown)
VH: EVQLVESGGGLVQPGGSLRLSCAASGFTFSDTYIHWVRQAPGKGLEWVAVIYPDNGATYYADSVKGTYYADSVKGRFTISADTSKNTAYLQMNSLRAEDTAVYYCAREFACARCVYGMDYWGQGTLVTVSS
VL: B1 VL
notes: hIgG1 in Biacore; also called Ab34
